Usually Kd stands for the free concentration of one partner at which half of the binding sites on the other are occupied at equilibrium, for simple one-to-one binding.

One test addresses T1, GST-RhoAQ63L (UniProt P61586 1-193, Q63L).
T1 construct: GTP-locked mutant; source: E. coli BL21, purified on glutathione-coated plates; not shown: GST, N-terminal, kept
Briefly: ELISA + SPR; competition ELISA on a RhoAQ63L coated plate (scFvC1-N1N2 0.4 μM competed by increasing GST-RBD); KD of GST-RBD also determined by SPR on GST-RhoAQ63L. (In general: An ELISA detects its analyte on a solid surface through an enzyme-linked reagent.)

Test [1] has as its target T2, GST-RhoB (wild type) (Homo sapiens (assumed), UniProt P62745).
T2 construct: Loaded with GDP, GTP or GTPγS as told in each assay; The immunoprecipitation speaks only of recombinant RhoB without naming the GST; also called recombinant RhoB; source: E. coli BL21, purified on glutathione-coated plates; crude bacterial lysate (immunoprecipitation); not shown: GST, N-terminal, kept
Briefly: ELISA; GST proteins loaded with 200 μM GTPγS for 30 min and purified on glutathione ELISA plates; 10^10 clones of C1 phages in each well; anti-M13-HRP, TMB. The settings on record: one partner purified.

A further test concerns the target T3, GST-RhoC (wild type) (Homo sapiens (assumed), UniProt P08134).
T3 construct: Loaded with GDP or GTPγS as told in each assay; source: E. coli BL21, purified on glutathione-coated plates; not shown: GST, N-terminal, kept
Described as above. The settings on record: one partner purified.

For test [2], the target named is T4, GST-Cdc42 (Homo sapiens (assumed), UniProt P60953).
T4 construct: Cdc42, from a pGEX plasmid provided by Dr. A. Blangy; Loaded with GDP, GTP or GTPγS as told in each assay; also called GTP-Cdc42; source: E. coli BL21, purified on glutathione-coated plates
Described as above. The settings on record: one partner purified.

The target of test [3] is T5, GST-Rac1 (Homo sapiens (assumed), UniProt P63000). Described as above. The settings on record: one partner purified.
Test [4] deals with T2, GST-RhoB (wild type). The experiment in a line: pull-down; scFv C1-N1N2 from crude bacterial extract fixed on Ni-NTA beads; crude bacterial lysate with recombinant RhoA or RhoB loaded with 0.2 mM GTPγS (PBS, 10 mM EDTA, 30 min, 30°C); 45 min at 4°C; blot with anti-RhoA or anti-RhoB; called immunoprecipitation. The settings on record: one partner purified.
The target of test [5] is T4, GST-Cdc42. The experiment in a line: ELISA; competition ELISA on a RhoAQ63L coated plate: scFvC1-N1N2 (0.4 μM) competed by increasing concentrations of GST-RBD, GDP bound RhoA, GTP bound Cdc42, GTP bound Rac1.
The target in test [6] is T5, GST-Rac1. The test is described as above.

T4 sequence (P60953 whole entry): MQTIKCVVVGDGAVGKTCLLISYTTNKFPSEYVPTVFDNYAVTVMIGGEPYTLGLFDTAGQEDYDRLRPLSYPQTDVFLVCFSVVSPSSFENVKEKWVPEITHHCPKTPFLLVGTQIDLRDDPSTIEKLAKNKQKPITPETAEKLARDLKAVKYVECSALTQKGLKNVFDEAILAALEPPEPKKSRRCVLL
T2 sequence (P62745 whole entry): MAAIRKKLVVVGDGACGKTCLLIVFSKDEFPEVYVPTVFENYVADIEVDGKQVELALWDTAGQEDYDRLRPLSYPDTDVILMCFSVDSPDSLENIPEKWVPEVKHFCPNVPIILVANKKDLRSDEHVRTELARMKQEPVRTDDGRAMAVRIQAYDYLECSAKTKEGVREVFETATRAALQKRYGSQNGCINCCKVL
T3 sequence (P08134 whole entry): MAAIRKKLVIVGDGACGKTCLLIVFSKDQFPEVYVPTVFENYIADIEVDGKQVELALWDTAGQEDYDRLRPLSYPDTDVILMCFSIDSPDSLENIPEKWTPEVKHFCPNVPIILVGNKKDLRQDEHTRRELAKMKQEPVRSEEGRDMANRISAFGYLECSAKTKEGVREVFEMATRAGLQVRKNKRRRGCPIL
T1 sequence (P61586 whole entry Q63L): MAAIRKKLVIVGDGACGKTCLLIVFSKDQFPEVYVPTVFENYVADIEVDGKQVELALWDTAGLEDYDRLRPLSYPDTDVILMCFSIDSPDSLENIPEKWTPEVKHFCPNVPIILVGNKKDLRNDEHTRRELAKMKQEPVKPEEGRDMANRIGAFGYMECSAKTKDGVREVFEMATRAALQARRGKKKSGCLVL

B1: GST-RBD (Rho binding domain of Rhotekin fused to GST) (domain or fragment)
chain: ILEDLNMLYIRQMALSLEDTELQRKLDHEIRMRDGACKLLAACSQREQALEATKSLLVCNSRILSYMGELQRRKEAQVLEKTG
B1: the dissociation constant Kd with GST-RhoAQ63L turned out to be 0.2 ± 0.2 µM.

B2: C1 phage (scFv C1-pIII fusion protein displayed on phage) (scFv, V domains shown)
VH: not shown
VL: SSELTQDPAVSVALGQTVRITCQGDSLRSYYASWYQQKPGQAPVLVIYGKNNRPSGIPDRFSGSSSGNTASLTITGAQAEDEADYYCNSRDSSGNHAYVFGGGTKLTVL
notes: VH of scFv C1 (human synthetic, Griffin.1 library); linker between VH and VL of the Griffin.1 library vector pHEN2; VL of scFv C1 (human synthetic, Griffin.1 library); source: monoclonal phage from E. coli supernatant (Griffin.1 library, phagemid pHEN2); not shown: 6xHis, C-terminal, kept; myc, C-terminal, kept
In the case of B2, the binding result is on record as “binds” with GST-RhoB (wild type) [1], “binds” with GST-RhoC (wild type), “no binding (tested: 10^10 clones of C1 phages)” in the test with GST-Cdc42 [2] and “no binding (tested: 10^10 clones of C1 phages)” in the test with GST-Rac1 [3].

B3: scFv C1-N1N2 (scFv, V domains shown)
VH: not shown
VL: SSELTQDPAVSVALGQTVRITCQGDSLRSYYASWYQQKPGQAPVLVIYGKNNRPSGIPDRFSGSSSGNTASLTITGAQAEDEADYYCNSRDSSGNHAYVFGGGTKLTVL
notes: VH of scFv C1, as in m1; linker between VH and VL of the vector pHEN2, as in m1; VL of scFv C1, as in m1; N-terminal portions N1 and N2 of the phage coat protein pIII of M13 (vector pHEN2); the C-terminal portion of pIII removed; The amber codon between the tags and gene III was mutated so that translation runs into pIII; an EcoRI site was put in after N2; Predicted mass 60 kDa; Smaller proteins …
Regarding B3, the binding result with GST-RhoB (wild type) [4] is listed as “binds”; in the test with GST-Cdc42 [5], “no binding (tested: > 50 μM)”; with GST-Rac1 [6], “no binding (tested: > 50 μM)”. Also, the Kd with GST-Cdc42 [5] and with GST-Rac1 [6] was > 50 µM in each case.
